Results: the supplement of paper PMC7125110
± gives the standard error. This sample holds only a part of the variants without activity.

B1: glmS ribozyme (parent)
chain: AUAAAAGCGCCAGAACUACAGAAAUGUAGUUGACGAGGAGGAGGUUUAUCGAAUUUUCGGCGGAUGCCUCCAAA

Legend:
glucosamine-6-phosphate [1] = variants of: B1; assay: self-cleavage kobs at 640 uM GlcN6P; higher = faster cleavage; RNA array; conditions: with glucosamine-6-phosphate
Procedure, shortened: (§1)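 Barcoded ribozyme variants on sequenced MiSeq chips were transcribed in situ by E. coli RNA polymerase and followed at 37 °C through a hybridised Cy3 probe. Glucosamine-6-phosphate at 40 μM to 10 mM in HEPES/KCl/Mg(OAc)2 buffer was flowed in, and tiles were imaged over ~14 h. Signals were normalised to baseline and to non-cleaving reference variants, and per-tile medians were fit to one- or two-exponential decays to give kobs. Weighted Michaelis–Menten fits across concentrations gave kcat and KM.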

glucosamine-6-phosphate [2] = variants of: B1; assay: self-cleavage kobs at 2500 uM GlcN6P; higher = faster cleavage; RNA array; conditions: with glucosamine-6-phosphate
Procedure, shortened: as §1

AUAAAAGCGCCAGGACUACAGAAAUGUAGGUGACGAGGAGGAGGUUUAUCGAAUUUUCGGCGGGUGCCUCCAAA [A14G U30G A64G]
self-cleavage kobs at 640 uM GlcN6P (glucosamine-6-phosphate [1]): 0.00462 ± 0.0017 s⁻¹ | self-cleavage kobs at 2500 uM GlcN6P (glucosamine-6-phosphate [2]): 0.00995 ± 0.0044 s⁻¹

AUAAAAGCGCCAGCACUACAGAAAUGUAGUUGAAGAGGAGGAGGUGUAUCGAAUUUUCGGCGGAUGCCUCCAAA [A14C C34A U46G]
self-cleavage kobs at 640 uM GlcN6P (glucosamine-6-phosphate [1]): < 1e-05 s⁻¹ | self-cleavage kobs at 2500 uM GlcN6P (glucosamine-6-phosphate [2]): < 1e-05 s⁻¹

AUAAAAGCGCCAGCACUACAGAAAUGUAGUUGACGAGGAGGGAGUUUAUCGAAUUUUCGGCGGAUGCCCUCAAA [A14C A42G G43A U69C C70U]
self-cleavage kobs at 640 uM GlcN6P (glucosamine-6-phosphate [1]): < 1e-05 s⁻¹

AUAAAAGCGCCAGUACUACAGAAAUGUAGUUGACGAGGAGGAGGUUUAUCGAAUUUUCGGAGGAUACCUCCAAA [A14U C61A G66A]
self-cleavage kobs at 640 uM GlcN6P (glucosamine-6-phosphate [1]): < 1e-05 s⁻¹

AUAAAAGCGCCAGUACUACAGAAAUGUAGUUGACGAGGAGGAGGUUUUUCAGAUUUUCGGCGGAUGCCUCCAAA [A14U A48U G51A A52G]
self-cleavage kobs at 640 uM GlcN6P (glucosamine-6-phosphate [1]): < 1e-05 s⁻¹ | self-cleavage kobs at 2500 uM GlcN6P (glucosamine-6-phosphate [2]): < 1e-05 s⁻¹

AUAAAAGCGCCAGUACUACAGAAAUGUAGUUGACGAGGAGGAGGUUUAUCGAAUUUUCGGCGGAUGUGUCCAAA [A14U C67U C68G]
self-cleavage kobs at 640 uM GlcN6P (glucosamine-6-phosphate [1]): 0.000113 ± 3.4e-05 s⁻¹

AUAAAAGCGCCAGGACUACAGAAAUGUAGUUGACGAGGAGGAGGUUUAUCGAAAUUUAGGCGGAUGCUUCCAAA [A14G U54A C58A C68U]
self-cleavage kobs at 640 uM GlcN6P (glucosamine-6-phosphate [1]): 9.22e-05 ± 1.9e-05 s⁻¹ | self-cleavage kobs at 2500 uM GlcN6P (glucosamine-6-phosphate [2]): 0.000131 ± 2.9e-05 s⁻¹

AUAAAAGCGCCAGUACUACAGAAAUGUAGUUGACGAGAAGGAGGUUUAUCGAGUUUUCGGCGGAUGCCUCCAAA [A14U G38A A53G]
self-cleavage kobs at 640 uM GlcN6P (glucosamine-6-phosphate [1]): < 1e-05 s⁻¹

AUAAAAGCGCCAGGACUACAGAAAUGUAGUUGGCGAGGAGUAGGUUUCUCGAAUUUUCGGCGGAUGCCGCCAAA [A14G A33G G41U A48C U69G]
self-cleavage kobs at 640 uM GlcN6P (glucosamine-6-phosphate [1]): < 1e-05 s⁻¹ | self-cleavage kobs at 2500 uM GlcN6P (glucosamine-6-phosphate [2]): < 1e-05 s⁻¹

AUAAAAGCGCCAGGACUACAGAAAUGUAGUUGACGCGGACGAGGUUUAUCCAAUUUUCGGCGGAUGCCUCCAAA [A14G A36C G40C G51C]
self-cleavage kobs at 640 uM GlcN6P (glucosamine-6-phosphate [1]): < 1e-05 s⁻¹

AUAAAAGCGCCAGUACUACAGAAAUGUAGUUGACGGGGAAAAGGUUUAUCGAAAUUACGGCGGAUGCCUCUAAA [A14U A36G G40A G41A U54A U57A C71U]
self-cleavage kobs at 640 uM GlcN6P (glucosamine-6-phosphate [1]): < 1e-05 s⁻¹

AUAAAAGCGCCAGCACUACAGAAAUGUAGUUGACGAGGAGGAGAUUUAUCGAAUUUUCGGCGGUUGCCUCCAAA [A14C G44A A64U]
self-cleavage kobs at 640 uM GlcN6P (glucosamine-6-phosphate [1]): < 1e-05 s⁻¹

AUAAAAGCGCCAGUACUACAGAAAUGUAUUUGACGAGGAGGAGGUUUAUCGAAUUGUCGGCGGAUGCCUCCAAA [A14U G29U U56G]
self-cleavage kobs at 640 uM GlcN6P (glucosamine-6-phosphate [1]): 0.000178 ± 4.1e-05 s⁻¹ | self-cleavage kobs at 2500 uM GlcN6P (glucosamine-6-phosphate [2]): 0.000206 ± 7.4e-05 s⁻¹

AUAAAAGCGCCAGUGCUACAGAAAUGUAGUUGACGAGGAGGAGGUUUAUCGAAUUUUCGGCGGCUGCCUCCAAA [A14U A15G A64C]
self-cleavage kobs at 640 uM GlcN6P (glucosamine-6-phosphate [1]): < 1e-05 s⁻¹

AUAAAAGCGCCAGGACUACAGAAAUGUAGUUGACGAGGAGGCGGUUUAUCGAAUUUUCGGCGUAUGCCUCCAAA [A14G A42C G63U]
self-cleavage kobs at 640 uM GlcN6P (glucosamine-6-phosphate [1]): < 1e-05 s⁻¹

AUAAAAGCGCCAGCACUACAGAAAUGUAGUUGACGAGGAGGAGCUUUAUCGAAUCUUCGGCGGAUGCCUCCAAA [A14C G44C U55C]
self-cleavage kobs at 640 uM GlcN6P (glucosamine-6-phosphate [1]): < 1e-05 s⁻¹

AUAAAAGCGCCAGUACUACAGAAAUGUAGUUGACGAGGAGGAGGUUUAUGGAAUUUUCGGCAGAUGCCUCCAAA [A14U C50G G62A]
self-cleavage kobs at 640 uM GlcN6P (glucosamine-6-phosphate [1]): 0.000193 ± 8.2e-05 s⁻¹

AUAAAAGCGCCAGGACUACAGAAAUGUAGUUGACGAGGAGGAGGUUUAUCGAACUUUCGGCGGAUGCGUCCAAA [A14G U54C C68G]
self-cleavage kobs at 640 uM GlcN6P (glucosamine-6-phosphate [1]): 0.000112 ± 3e-05 s⁻¹ | self-cleavage kobs at 2500 uM GlcN6P (glucosamine-6-phosphate [2]): 7.7e-05 ± 1.8e-05 s⁻¹

AUAAAAGCGCCAGCACUACAGAAAUGUAGUUGACUAGGAGGAGGUUUAUCGAAUUUUCGGAGGAUGCCUCCAAA [A14C G35U C61A]
self-cleavage kobs at 640 uM GlcN6P (glucosamine-6-phosphate [1]): < 1e-05 s⁻¹

AUAAAAGCGCCAGCACUACAGAAAUGUAGUUGACGGGGAGGAGGUUUACCGAAUUUUCGGCGGAUGCCUCCAAA [A14C A36G U49C]
self-cleavage kobs at 640 uM GlcN6P (glucosamine-6-phosphate [1]): < 1e-05 s⁻¹ | self-cleavage kobs at 2500 uM GlcN6P (glucosamine-6-phosphate [2]): < 1e-05 s⁻¹

AUAAAAGCGCCAGGGCUACAGAAAUGUAGUUGAGGAGGAGGAGGUUUAUCGAAUUUUCGGCGGAUGCCACCAAA [A14G A15G C34G U69A]
self-cleavage kobs at 640 uM GlcN6P (glucosamine-6-phosphate [1]): 0.000303 ± 0.00014 s⁻¹

AUAAAAGCGCCAGCACUACAGAAAUGUAGUUGACGAGGAGGAGGUGUAUCGAAUUUUCGGCGGAUACCUCCAAA [A14C U46G G66A]
self-cleavage kobs at 640 uM GlcN6P (glucosamine-6-phosphate [1]): 0.000298 ± 5.1e-05 s⁻¹ | self-cleavage kobs at 2500 uM GlcN6P (glucosamine-6-phosphate [2]): 0.000166 ± 3.6e-05 s⁻¹

AUAAAAGCGCCAGUAAUACAGAAAUGUAGUUGACCAGGAGGACGUUUAUCGACUUUUCGGUGGAUGCCUCCAAA [A14U C16A G35C G43C A53C C61U]
self-cleavage kobs at 640 uM GlcN6P (glucosamine-6-phosphate [1]): < 1e-05 s⁻¹ | self-cleavage kobs at 2500 uM GlcN6P (glucosamine-6-phosphate [2]): < 1e-05 s⁻¹

AUAAAAGCGCCAGGAAUACAGAAAUGUAGUUGACGAGGAAGAGGUUUAUCGAAUUUUCGGCGGAUGCCUCCAAA [A14G C16A G40A]
self-cleavage kobs at 640 uM GlcN6P (glucosamine-6-phosphate [1]): 0.000169 ± 3e-05 s⁻¹ | self-cleavage kobs at 2500 uM GlcN6P (glucosamine-6-phosphate [2]): 0.00023 ± 6.8e-05 s⁻¹

AUAAAAGCGCCAGGACUACAGAAAUGUAGUUGACGAGGAGGAGGUUUAUCGAAUUUUCGGCGGAUGCCAACAAA [A14G U69A C70A]
self-cleavage kobs at 640 uM GlcN6P (glucosamine-6-phosphate [1]): 5.74e-05 ± 2.2e-05 s⁻¹ | self-cleavage kobs at 2500 uM GlcN6P (glucosamine-6-phosphate [2]): 8.42e-05 ± 1.9e-05 s⁻¹
